Measured values published in patent publication US20150306238A1, “BACTERIA TARGETING NANOPARTICLES AND RELATED METHODS OF USE” (THE REGENTS OF THE UNIVERSITY OF MICHIGAN, priority 2012, published 2015).
Values joined by “and” are separate entries in the source; they are usually repeats but may differ in a detail not shown here. Equal values may be shown once. Read-outs that look alike come from different tables or passages of the source.

Tests used:
[1] = system: Staphylococcus aureus; assay: Turbidity assay (bacterial cell lysis / growth); type: cell-based; conditions: OD at 650 nm, 24 h
Source text: This example describes bacterial cell lysis experiments. Whether the binding of the vancomycin-conjugated dendrimer to the bacterial membrane causes bacterial cell lysis was next investigated. […] S.; et al., Antimicrob. Agents Chemother. 2009, 53, 3375-3383; herein incorporated by reference in its entirety)). On the other hand, the lack of such a mechanism would be more desirable for the diagnostic applications that aim for bacterial detection, isolation, and enumeration of whole cells. To determine the degree of cell lysis, a turbidity assay was employed. This assay quantitates the bacterial population in a culture by measuring the optical density (OD at 650 nm), and the cell populations are correlated with the degree of lysis (see, e.g., Chung, H. S.; et al., Proc. Natl. Acad. Sci. U.S.A. 2009, 106, 21872-21877; Lunde, C. S.; et al., Antimicrob. Agents Chemother. 2009, 53, 3375-3383; each herein incorporated by reference in its entirety)). Effects of the conjugates I-VI, VIII, IX on the cell growth rate were determined using the same Gram-positive strain Staphylococcus aureus and were presented as a function of the inhibitor concentration (FIGS. 12 and 13). […]
Turbidity assay. […] After incubation of the plates at 37° C. for 24 h, bacterial growth was examined by optical microscopy and reading an optical density (O. D.) value at 650 nm by an ELISA plate reader.

[2] = target: N^α-Ac-Lys-(D)-Ala-(D)-Ala peptide; conditions: vancomycin to (D)-Ala-(D)-Ala, literature; cited from earlier work
[3] = system: N^α-Ac-Lys-(D)-Ala-(D)-Lac peptide; conditions: cited from earlier work
[4] = system: N^α-Ac-Lys-(D)-Ala-(D)-Lac peptide; assay: SPR binding to vancomycin-resistant bacterial cell wall model
Source text: SPR spectroscopy is a real-time kinetic method that allows the measurement of the on-rate constant (kon), the off-rate constant (koff), and equilibrium dissociation constant KD (=koff/kon) for receptor-ligand interactions occurring on the surface (see, e.g., Rao, J.; et al., Chem. Biol. (Cambridge, Mass., U.S.) 1999, 6, 353-359; Rao, J.; et al., J. Am. Chem. Soc. 1999, 121, 2629-2630; Hong, S.; et al., Chem. Biol. (Cambridge, Mass., U.S.) 2007, 14, 107-115; Li, M.-H.; Eur. J. Med. Chem. 2012, 47, 560-572; Plantinga, A.; et al., ACS Med. Chem. Lett. 2011, 2, 363-367; Cooper, M. A.; et al., Bioorg. Med. Chem. 2000, 8, 2609-2616; each herein incorporated by reference in its entirety)). The experiments employed SPR spectroscopy to determine the binding constant KD for dendrimer-based multivalent vancomycin conjugates to the cell wall ligands immobilized on the chip surface as a model for the bacterial cell surface. […]

[5] = system: N^α-Ac-Lys-(D)-Ala-(D)-Ala peptide; assay: SPR binding to vancomycin-susceptible bacterial cell wall model; conditions: for Kd: (D)-Ala-(D)-Ala surface
Source text: SPR spectroscopy is a real-time kinetic method that allows the measurement of the on-rate constant (kon), the off-rate constant (koff), and equilibrium dissociation constant KD (=koff/kon) for receptor-ligand interactions occurring on the surface (see, e.g., Rao, J.; et al., Chem. Biol. (Cambridge, Mass., U.S.) 1999, 6, 353-359; Rao, J.; et al., J. Am. Chem. Soc. 1999, 121, 2629-2630; Hong, S.; et al., Chem. Biol. (Cambridge, Mass., U.S.) 2007, 14, 107-115; Li, M.-H.; Eur. J. Med. Chem. 2012, 47, 560-572; Plantinga, A.; et al., ACS Med. Chem. Lett. 2011, 2, 363-367; Cooper, M. A.; et al., Bioorg. Med. Chem. 2000, 8, 2609-2616; each herein incorporated by reference in its entirety)). The experiments employed SPR spectroscopy to determine the binding constant KD for dendrimer-based multivalent vancomycin conjugates to the cell wall ligands immobilized on the chip surface as a model for the bacterial cell surface. The model surface was prepared by utilizing each CMS sensor chip which was treated to present N^α-Ac-Lys-(D)-Ala-(D)-Ala or N^α-Ac-(D)-Ala-(D)-Lac as the cell wall precursor on the surface, each representing a vancomycin-susceptible and vancomycin-resistant cell wall model, respectively (see, e.g., Rao, J.; et al., Chem. Biol. (Cambridge, Mass., U.S.) 1999, 6, 353-359; Rao, J.; et al., J. Am. Chem. Soc. 1999, 121, 2629-2630; each herein incorporated by reference in its entirety)). Such a peptide-presenting chip was prepared typically following a N-(3-dimethylaminopropyl)-N′-ethylcarbodiimide (EDC)-based amide coupling method at a surface peptide density of 0.12 ng/mm^2 (equivalent to 2.2×10^11 molecules/mm^2) (see, e.g., Hong, S.; et al., Chem. Biol. (Cambridge, Mass., U.S.) 2007, 14, 107-115; Plantinga, A.; et al., ACS Med. Chem. Lett. 2011, 2, 363-367; each herein incorporated by reference in its entirety)).
SPR spectroscopy. […]

[6] = system: bacterial cells; conditions: reported in literature; cited from earlier work
[7] = target: N^α-Ac-Lys-(D)-Ala-(D)-Lac peptide; assay: SPR (Biacore X), peptide immobilised on CM5 chip, Langmuir fit
[8] = target: N^α-Ac-Lys-(D)-Ala-(D)-Lac peptide; assay: SPR; ratio against free vancomycin
[9] = target: N^α-Ac-Lys-(D)-Ala-(D)-Ala peptide; assay: SPR (Biacore X), peptide immobilised on CM5 chip, Langmuir fit
[10] = target: N^α-Ac-Lys-(D)-Ala-(D)-Ala peptide; assay: SPR; ratio against free vancomycin
[11] = target: N^α-Ac-Lys-(D)-Ala-(D)-Lac peptide; assay: SPR; vancomycin is the reference
[12] = target: N^α-Ac-Lys-(D)-Ala-(D)-Ala peptide; assay: SPR; vancomycin is the reference
[13] = target: N^α-Ac-Lys-(D)-Ala-(D)-Lac peptide; assay: SPR (Biacore X), peptide immobilised on CM5 chip, Scatchard analysis
[14] = target: N^α-Ac-Lys-(D)-Ala-(D)-Ala peptide; assay: as above

Row | Compound | Kd [7] | koff [7] | kon [7] | valency-corrected β (= β ÷ n) [8] | β (multivalent binding enhancement = KD vancomycin ÷ KD G5-(V)n) [8] | Kd [9] | koff [9] | kon [9] | valency-corrected β (= β ÷ n) [10] | β (multivalent binding enhancement = KD vancomycin ÷ KD G5-(V)n) [10] | also measured
1 | CN[C@H](CC(C)C)C(=O)N[C@H]1C(=O)N[C@@H](CC(N)=O)C(=O)N[C@H]2C(=O)N[C@H]3C(=O)N[C@H](C(=O)N[C@H](C(=O)O)c4cc(O)cc(O)c4-c4cc3ccc4O)[C@H](O)c3ccc(c(Cl)c3)Oc3cc2cc(c3O[C@@H]2O[C@H](CO)[C@@H](O)[C@H](O)[C@H]2O[C@H]2C[C@](C)(N)[C@H](O)[C@H](C)O2)Oc2ccc(cc2Cl)[C@H]1O [Vancomycin, vancomycin] | – | – | – | – | – | – | – | – | – | – | concentration at which optical density decreased to the background level [1]: ≥ 0.1 µM; Kd [2]: ~1 µM; reduction in affinity of (D)-Ala-(D)-Lac surface to free vancomycin ([3]; relative to (D)-Ala-(D)-Ala, reported): ~1000 fold; Kd ([3]; vancomycin to (D)-Ala-(D)-Lac, literature): ~1000 µM and 1700 µM; Kd ([4]; (D)-Ala-(D)-Lac surface, mean (SEM), vancomycin by Scatchard analysis): 1500 µM and ~1500 µM; SPR binding response to the (D)-Ala-(D)-Lac surface ([4]; in words): very low responses; Kd [5]: 0.95 µM; Kd ([5]; mean (SEM), vancomycin by Scatchard analysis): 0.95 µM; SPR binding response to the (D)-Ala-(D)-Ala surface ([5]; in words, vancomycin at concentrations as low as 2 nM): no detectable response
2 | CCCCCCCCCCNCCN[C@@]1(C)C[C@H](O[C@H]2[C@H](Oc3c4cc5cc3Oc3ccc(cc3Cl)[C@@H](O)[C@@H](NC(=O)[C@@H](CC(C)C)NC)C(=O)N[C@@H](CC(N)=O)C(=O)N[C@H]5C(=O)N[C@H]3C(=O)N[C@H](C(=O)N[C@H](C(=O)O)c5cc(O)c(CNCP(=O)(O)O)c(O)c5-c5cc3ccc5O)[C@H](O)c3ccc(c(Cl)c3)O4)O[C@H](CO)[C@@H](O)[C@@H]2O)O[C@@H](C)[C@H]1O [telavancin] | – | – | – | – | – | – | – | – | – | – | bactericidal activity / cell lysis [6]: potent bactericidal activity without causing cell lysis
3 | I Ac-G5-(V)1.2 | 0.0071 µM | 0.00066 s⁻¹ | 98000 M⁻¹ s⁻¹ | 18000 | 210000 | – | – | – | – | – | –
4 | II Ac-G5-(V)2.3 | 0.0081 µM | 0.00041 s⁻¹ | 320000 M⁻¹ s⁻¹ | 81000 | 190000 | 0.0034 µM | 0.00045 s⁻¹ | 150000 M⁻¹ s⁻¹ | 122 | 280 | –
5 | III Ac-G5-(V)3.5 | 0.002 µM | 0.00045 s⁻¹ | 640000 M⁻¹ s⁻¹ | 210000 | 750000 | – | – | – | – | – | –
6 | IV Ac-G5-(V)5.8 | 0.0017 µM | 0.00029 s⁻¹ | 690000 M⁻¹ s⁻¹ | 150000 | 880000 | 0.00025 µM | 4.4e-05 s⁻¹ | 450000 M⁻¹ s⁻¹ | 655 | 3800 | –
7 | VI GA-G5-(V)6.0 | 0.0034 µM | 0.0028 s⁻¹ | 1.8e+06 M⁻¹ s⁻¹ | 74000 | 440000 | 0.00054 µM | 0.00036 s⁻¹ | 670000 M⁻¹ s⁻¹ | 293 | 1760 | –
8 | Vancomycin (peptide) | – | – | – | – | – | – | – | – | – | – | β (multivalent binding enhancement = KD vancomycin ÷ KD G5-(V)n) [11]: 1; β (multivalent binding enhancement = KD vancomycin ÷ KD G5-(V)n) [12]: 1; Kd [13]: 1500 µM; Kd [14]: 0.95 µM
